Test results as given in publication PMC7337899, “E. coli Rep helicase and RecA recombinase unwind G4 DNA and are important for resistance to G4-stabilizing ligands” (Nucleic Acids Research, 2020).

Substrate: Nc1ncnc2c1ncn2[C@@H]1O[C@H](COP(=O)(O)OP(=O)(O)OP(=O)(O)O)[C@@H](O)[C@H]1O
Experiment: purified protein
Type: biochemical, Escherichia coli
Conditions: non-parallel (TTAGGG)4-T15 G4 DNA, 100 nM protein, 1 μM to 2 mM ATP, 50 mM KCl, 3 mM MgCl2, pH 7.5, ~23 °C

B1: UvrD (Escherichia coli K-12) (protein)
chain: MDVSYLLDSLNDKQREAVAAPRSNLLVLAGAGSGKTRVLVHRIAWLMSVENCSPYSIMAVTFTNKAAAEMRHRIGQLMGTSQGGMWVGTFHGLAHRLLRAHHMDANLPQDFQILDSEDQLRLLKRLIKAMNLDEKQWPPRQAMWYINSQKDEGLRPHHIQSYGNPVEQTWQKVYQAYQEACDRAGLVDFAELLLRAHELWLNKPHILQHYRERFTNILVDEFQDTNNIQYAWIRLLAGDTGKVMIVGDDDQSIYGWRGAQVENIQRFLNDFPGAETIRLEQNYRSTSNILSAANALIENNNGRLGKKLWTDGADGEPISLYCAFNELDEARFVVNRIKTWQDNGGALAECAILYRSNAQSRVLEEALLQASMPYRIYGGMRFFERQEIKDALSYLRLIANRNDDAAFERVVNTPTRGIGDRTLDVVRQTSRDRQLTLWQACRELLQEKALAGRAASALQRFMELIDALAQETADMPLHVQTDRVIKDSGLRTMYEQEKGEKGQTRIENLEELVTATRQFSYNEEDEDLMPLQAFLSHAALEAGEGQADTWQDAVQLMTLHSAKGLEFPQVFIVGMEEGMFPSQMSLDEGGRLEEERRLAYVGVTRAMQKLTLTYAETRRLYGKEVYHRPSRFIGELPEECVEEVRLRATVSRPVSHQRMGTPMVENDSGYKLGQRVRHAKFGEGTIVNMEGSGEHSRLQVAFQGQGIKWLVAAYARLESV
notes: expressed in E. coli BL21(DE3) pLysS; Polymin P, ammonium sulfate, heparin and Sephacryl S-300 purification; no tag mentioned
  Km: 42.52 ± 13.8 µM
